tested on: Escherichia coli TOP10; experiment: shrunken log2 fold change of peptide-encoding DNA abundance (4.5 h post-induction vs induction); higher = less antimicrobial activity (less host growth inhibition); conditions: time post-induction: 4.5 h; library: site-saturation at positions 5, 18, 19, 20
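Note: peptides expressed intracellularly from a pBAD plasmid library in pooled LB shake-flask culture, induced with 0.3% L-arabinose, DNA abundance read by NGS, three biological replicates, DESeq2 with apeglm shrinkage.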

| Sequence | shrunken log2 fold change |
| --- | --- |
| RRIRKRPPRLPRPRPRPNAFPRP | 0.0186 |
| RRIRRRPPRLPRPRPRPHPQPRP | 0.268 |
| RRIRRRPPRLPRPRPRPYIAPRP | -0.54 |
| RRIRTRPPRLPRPRPRPGMEPRP | 0.013 |
| RRIRIRPPRLPRPRPRPPAHPRP | 0.139 |
| RRIRLRPPRLPRPRPRPYQGPRP | -0.388 |
| RRIRTRPPRLPRPRPRPCRAPRP | -0.0539 |
| RRIRMRPPRLPRPRPRPQCDPRP | -0.0599 |
| RRIRYRPPRLPRPRPRPYCGPRP | -0.456 |
| RRIRNRPPRLPRPRPRPVAAPRP | 0.359 |
| RRIRVRPPRLPRPRPRPPQSPRP | 0.249 |
| RRIRCRPPRLPRPRPRPRPDPRP | 0.276 |
| RRIRGRPPRLPRPRPRPKQCPRP | 0.103 |
| RRIRWRPPRLPRPRPRPPESPRP | 0.225 |
| RRIRFRPPRLPRPRPRPFIHPRP | -0.724 |
| RRIRIRPPRLPRPRPRPIEHPRP | 0.00487 |
| RRIRERPPRLPRPRPRPHQVPRP | -0.0847 |
| RRIRLRPPRLPRPRPRPPNHPRP | -0.246 |
| RRIRFRPPRLPRPRPRPKHDPRP | -0.168 |
| RRIRRRPPRLPRPRPRPTCSPRP | 0.0172 |
| RRIRSRPPRLPRPRPRPCGVPRP | 0.0491 |
| RRIRSRPPRLPRPRPRPGMCPRP | 0.0439 |
| RRIRQRPPRLPRPRPRPWSSPRP | -0.0435 |
| RRIRYRPPRLPRPRPRPQRRPRP | -0.261 |
| RRIRYRPPRLPRPRPRPFWNPRP | -0.178 |

| Sequence | shrunken log2 fold change |
| --- | --- |
| RRIRKRPPRLPRPRPRPIHQPRP | -0.0102 |
| RRIRGRPPRLPRPRPRPPDAPRP | 1.45 |
| RRIRYRPPRLPRPRPRPKRVPRP | 0.0354 |
| RRIRDRPPRLPRPRPRPEHSPRP | -0.027 |
| RRIRTRPPRLPRPRPRPVIKPRP | -0.237 |
| RRIRPRPPRLPRPRPRPYICPRP | -0.149 |
| RRIRGRPPRLPRPRPRPECWPRP | 1.92 |
| RRIRDRPPRLPRPRPRPYKLPRP | -1.01 |
| RRIRCRPPRLPRPRPRPYHHPRP | -0.746 |
| RRIRIRPPRLPRPRPRPPEGPRP | 0.115 |
| RRIRKRPPRLPRPRPRPVGKPRP | -0.163 |
| RRIRPRPPRLPRPRPRPDTGPRP | 0.128 |
| RRIRIRPPRLPRPRPRPTNHPRP | -0.587 |
| RRIRGRPPRLPRPRPRPSVNPRP | 0.2 |
| RRIRARPPRLPRPRPRPCLYPRP | 0.137 |
| RRIRVRPPRLPRPRPRPEEFPRP | -0.034 |
| RRIRQRPPRLPRPRPRPQLQPRP | 0.112 |
| RRIRQRPPRLPRPRPRPMILPRP | -0.109 |
| RRIRDRPPRLPRPRPRPWLPPRP | 0.0708 |
| RRIRCRPPRLPRPRPRPREQPRP | 0.312 |
| RRIRTRPPRLPRPRPRPAGMPRP | 0.0244 |
| RRIRQRPPRLPRPRPRPLAVPRP | 0.0758 |
| RRIRFRPPRLPRPRPRPISSPRP | -0.0616 |
| RRIRERPPRLPRPRPRPIKDPRP | -0.168 |
| RRIRPRPPRLPRPRPRPHWEPRP | -0.146 |

| Sequence | shrunken log2 fold change |
| --- | --- |
| RRIRHRPPRLPRPRPRPCYDPRP | -0.00778 |
| RRIRGRPPRLPRPRPRPMKMPRP | 0.00988 |
| RRIRQRPPRLPRPRPRPPREPRP | 0.655 |
| RRIRDRPPRLPRPRPRPNHRPRP | -0.346 |
| RRIRCRPPRLPRPRPRPYSVPRP | -0.0508 |
| RRIRPRPPRLPRPRPRPHHFPRP | -0.0294 |
| RRIRPRPPRLPRPRPRPKWWPRP | 0.235 |
| RRIRERPPRLPRPRPRPNLQPRP | -0.208 |
| RRIRRRPPRLPRPRPRPLDDPRP | 0.0512 |
| RRIRARPPRLPRPRPRPPFLPRP | 0.529 |
| RRIRFRPPRLPRPRPRPWTAPRP | -0.283 |
| RRIRGRPPRLPRPRPRPEKDPRP | 1.27 |
| RRIRTRPPRLPRPRPRPPITPRP | -0.235 |
| RRIRERPPRLPRPRPRPIETPRP | -0.00369 |
| RRIRDRPPRLPRPRPRPHANPRP | 0.0766 |
| RRIRNRPPRLPRPRPRPANDPRP | -0.392 |
| RRIRMRPPRLPRPRPRPLQIPRP | -0.343 |
| RRIRMRPPRLPRPRPRPTTMPRP | 0.558 |
| RRIRERPPRLPRPRPRPPMTPRP | -0.163 |
| RRIRKRPPRLPRPRPRPFWQPRP | 0.0521 |
| RRIRARPPRLPRPRPRPNRGPRP | 0.108 |
| RRIRARPPRLPRPRPRPDNFPRP | -0.294 |
| RRIRNRPPRLPRPRPRPCSQPRP | -0.0135 |
| RRIRPRPPRLPRPRPRPFCNPRP | -0.609 |
| RRIRVRPPRLPRPRPRPLRLPRP | 0.641 |

| Sequence | shrunken log2 fold change |
| --- | --- |
| RRIRRRPPRLPRPRPRPSWHPRP | -0.0466 |
| RRIRPRPPRLPRPRPRPANEPRP | 0.18 |
| RRIRIRPPRLPRPRPRPAGDPRP | 0.0386 |
| RRIRYRPPRLPRPRPRPDPYPRP | -0.222 |
| RRIRLRPPRLPRPRPRPLLKPRP | -0.163 |
| RRIRDRPPRLPRPRPRPKACPRP | 0.024 |
| RRIRARPPRLPRPRPRPMQCPRP | 0.0593 |
| RRIRLRPPRLPRPRPRPEDIPRP | -0.539 |
| RRIRDRPPRLPRPRPRPNWTPRP | 0.0279 |
| RRIRFRPPRLPRPRPRPGIEPRP | -0.0616 |
| RRIRYRPPRLPRPRPRPDLTPRP | -0.0272 |
| RRIRSRPPRLPRPRPRPGVHPRP | -0.035 |
| RRIRTRPPRLPRPRPRPNHFPRP | -0.316 |
| RRIRARPPRLPRPRPRPAETPRP | 0.398 |
| RRIRWRPPRLPRPRPRPHTDPRP | -0.283 |
| RRIRNRPPRLPRPRPRPQDKPRP | 0.0859 |
| RRIRLRPPRLPRPRPRPEHEPRP | 0.13 |
| RRIRQRPPRLPRPRPRPRQSPRP | 0.0272 |
| RRIRQRPPRLPRPRPRPNDAPRP | -0.0276 |
| RRIRSRPPRLPRPRPRPWCHPRP | -0.4 |
| RRIRARPPRLPRPRPRPMWAPRP | 0.557 |
| RRIRCRPPRLPRPRPRPKCVPRP | -0.0957 |
| RRIRDRPPRLPRPRPRPVIFPRP | 0.212 |
| RRIRFRPPRLPRPRPRPMFTPRP | -0.123 |
| RRIRGRPPRLPRPRPRPKDFPRP | -0.0214 |

| Sequence | shrunken log2 fold change |
| --- | --- |
| RRIRMRPPRLPRPRPRPHHKPRP | -0.316 |
| RRIRERPPRLPRPRPRPIIDPRP | -0.0746 |
| RRIRHRPPRLPRPRPRPHLWPRP | -0.0776 |
| RRIRKRPPRLPRPRPRPFLQPRP | -0.0765 |
| RRIRVRPPRLPRPRPRPVITPRP | -0.207 |
| RRIRARPPRLPRPRPRPQQAPRP | 0.308 |
| RRIRKRPPRLPRPRPRPGWHPRP | 0.133 |
| RRIRWRPPRLPRPRPRPVLPPRP | -0.0604 |
| RRIRVRPPRLPRPRPRPKIMPRP | -0.193 |
| RRIRYRPPRLPRPRPRPHVIPRP | -0.448 |
| RRIRQRPPRLPRPRPRPKVMPRP | -0.0261 |
| RRIRGRPPRLPRPRPRPTHMPRP | 0.745 |
| RRIRRRPPRLPRPRPRPDMNPRP | -0.00608 |
| RRIRCRPPRLPRPRPRPTREPRP | 0.684 |
| RRIRIRPPRLPRPRPRPVTWPRP | -0.372 |
| RRIRDRPPRLPRPRPRPTNKPRP | -0.0409 |
| RRIRTRPPRLPRPRPRPQQPPRP | 0.153 |
| RRIRLRPPRLPRPRPRPMEAPRP | -0.00122 |
| RRIRKRPPRLPRPRPRPQTDPRP | -0.00442 |
| RRIRHRPPRLPRPRPRPFRTPRP | -0.0018 |
| RRIRVRPPRLPRPRPRPMNQPRP | -0.0672 |
| RRIRYRPPRLPRPRPRPMRTPRP | 0.176 |
| RRIRTRPPRLPRPRPRPQHEPRP | -0.00128 |
| RRIRIRPPRLPRPRPRPLFSPRP | -0.423 |
| RRIRHRPPRLPRPRPRPRMIPRP | -8.79e-05 |

| Sequence | shrunken log2 fold change |
| --- | --- |
| RRIRVRPPRLPRPRPRPTFGPRP | 0.215 |
| RRIRQRPPRLPRPRPRPAYWPRP | 0.128 |
| RRIRWRPPRLPRPRPRPYPKPRP | 0.11 |
| RRIRKRPPRLPRPRPRPQPDPRP | 0.459 |
| RRIRWRPPRLPRPRPRPNGQPRP | 0.158 |
| RRIRVRPPRLPRPRPRPMFFPRP | -0.333 |
| RRIRIRPPRLPRPRPRPWNDPRP | -0.216 |
| RRIRARPPRLPRPRPRPNFEPRP | 0.356 |
| RRIRSRPPRLPRPRPRPCWAPRP | 0.143 |
| RRIRRRPPRLPRPRPRPGCCPRP | 0.589 |
| RRIRIRPPRLPRPRPRPESLPRP | -0.23 |
| RRIRPRPPRLPRPRPRPRISPRP | -0.145 |
| RRIRVRPPRLPRPRPRPAAFPRP | 0.227 |
| RRIRTRPPRLPRPRPRPCEAPRP | 0.114 |
| RRIRFRPPRLPRPRPRPGYEPRP | -0.16 |
| RRIRDRPPRLPRPRPRPISHPRP | 0.0261 |
| RRIRERPPRLPRPRPRPGSDPRP | -0.369 |
| RRIRERPPRLPRPRPRPTQCPRP | -0.133 |
| RRIRERPPRLPRPRPRPWTHPRP | -0.0081 |
| RRIRNRPPRLPRPRPRPIGSPRP | -0.00277 |
| RRIRSRPPRLPRPRPRPSLDPRP | -0.0696 |
| RRIRARPPRLPRPRPRPALNPRP | 0.431 |
| RRIRYRPPRLPRPRPRPCDLPRP | -0.618 |
| RRIRRRPPRLPRPRPRPTEGPRP | 0.18 |
| RRIRERPPRLPRPRPRPCHRPRP | -0.02 |
